Series [1] has as its system E. necator. The experiment in a line: Greenhouse trial, powdery mildew on grapes, AUDPC of disease incidence and severity (Example 4). The series is classed as in vivo, E. necator in grapes. On the procedure: A greenhouse trial was performed to evaluate the efficacy of ES43 dsRNA for controlling E. necator in grapes compared with commercial fungicides (Luna Experience/Pristina) and biofungicides (Regalia Biofungicide/Double Nickel).
Disease incidence was calculated based on the total number of leaves on the plant infected with powdery mildew, out of number of leaves present. Disease severity was calculated based on the percent (%) leaf surface infected overall for each plant. Area under the disease progress curve (AUDPC) was then calculated throughout the entire trial period (FIGS. 5 and 6).

Series [2] concerns E. necator. The experiment in a line: Field trial, natural infestation on Chardonnay grapes, leaf disease incidence (Example 5). The series is classed as in vivo, E. necator on Chardonnay grapes. Particulars: FIG. 7. On the procedure: A field trial was conducted in ACDS Research vineyard (Dundee, New York) with natural disease infestation on grapes. The trial was set up in four rows (180 ft^2) of Chardonnay grapes, with plots consisting of four vines. The trial included 11 treatments (Table 5), each replicated four times. The grower spray program from budbreak through pre-bloom consisted of sulfur, and trial applications were initiated at bloom. Eight to fifteen applications of ES43 (6.25, 25, 50 and 100 g Ai/ha) were compared with Regalia (470 g Ai/ha) and DoubleNickel (10 billion Cfu/ml), Pristine (333 g Ai/ha) Rally 40 WSP (140 g Ai/ha) and Luna Experience (250 g Ai/ha). Disease incidence, total number of leaves infected out of number of leaves present on several branches, Weekly assessments was performed 1 day before ES43 applications. Data was collected one week after the last application for all treatments at the close of the experiment.
Disease incidence was calculated based on number of leaves infected with powdery mildew out of 20 total leaves.

Series [3] concerns E. necator. Nature of the series: Leaf disc assay, wet inoculum (conidial suspension), disease severity by automated phenotyping (Example 1).
For a further series, the system named is Cyp51 transcripts. Nature of the series: Gene specific qRT-PCR of ES43 (Cyp51) transcripts in leaf discs (Example 3). The series is classed as in vivo, E. necator. Here is the method: FIG. 3. Gene specific qRT-PCR analysis of ES43 (Cyp51) transcripts at 6-dpi in leaf discs. Two housekeeping genes (GDP1 and TEF1) were used as endogenous references to examine the expression of Cyp51. Gene expression was normalized to the untreated control. Statistical significance at p<0.01, Mann-Whitney U test.
qRT-PCR was performed to validate the effect of exogenous dsRNA on the expression of selected targeted genes for which activity of dsRNA had been shown by leaf assay (as described in Example 2). Samples were treated with dsRNA, inoculated after 24 hours and six leaf discs per treatment were collected at six-days post inoculation (dpi) for further analysis.
A general note: In qPCR the cycle at which signal appears reflects the starting amount.

Series [4] concerns E. necator. The experiment in a line: Leaf disc assay, dry inoculum (settling tower), decrease in disease severity / hyphal growth (Example 2). Conditions: decrease in disease severity (hyphal growth) relative to untreated control, value ± SE.

B1: ES43: 497 bp Cyp51-dsRNA, trigger SEQ ID NO 108; gene target Cytochrome P450 (nucleic acid)
DNA: TCTTACCATGAAGCGTTCCATTCCTATGTAACAATAATACAAAATGAAGTAGAGGCATATATAAACAATTGCGTTAGCTTTCAGGGTGAGAGTGGCACAGTAAACATCTCAAAAGTTATGGCGGAAATCACTATATATACTGCTTCACATGCCTTACAAGGAGAAGAGGTCCGTGAGAATTTTGACTCATCTTTTGCCGCTCTTTATCATGATCTTGATATGGGATTTACACCGATCAACTTTACATTTTACTGGGCACCTCTACCTTGGAATCGTGCTCGTGATCATGCCCAAAGAACTGTTGCTAGGACTTATATGAATATAATCCAAGCTCGTAGAGAAGAGAAAAGAAGCGGTGAGAATAAGCATGATATAATGTGGGAGTTGATGCGTTCCACTTATAAAGACGGGACTCCGGTACCTGATCGAGAGATAGCGCATATGATGATAGCCCTTCTGATGGCTGGACAACACTCTTCGTCATCCACGAGCTCATG
For B1, the “AUDPC based on disease severity vs. untreated control” value in the series with E. necator [1] (FIG. 6) is “significantly decreased severity”. In the series with E. necator [1] (twice per week applications at the same rate, numerically), the “reduction in disease incidence, twice per week vs once per week” value is “greater reduction in disease incidence compared to once per week applications at the same rate”. For the same molecule, the “AUDPC based on disease severity, compared with commercial fungicide and biofungicides” value in the series on E. necator [1] (weekly and twice-per-week spray interval, FIG. 6) is “performed similarly to commercial fungicide and biofungicides”. The “AUDPC based on disease incidence” value with E. necator [1] (weekly spray interval, all rates (6.25-100 g ai/ha), FIG. 5) was “reduced powdery mildew AUDPC incidence with all rates similar to or better than the biofungicide standard”. Besides, the leaf disease incidence result was “significantly decreased disease incidence” in the series with E. necator [2] (6.25 g Ai/ha, 7-day and twice a week (3/4-day), 57 days after initial treatments); “decreased incidence compared to untreated control” in the series on E. necator [2] (50 g Ai/ha, compared to untreated control). The “LSMeans difference (Dunnett's), disease severity” value in the series on E. necator [3] (Run1, ES43 10 ppm vs negative control GS4 25 ppm) is reported as −61.5000; with E. necator [3] (Run1, ES43 25 ppm vs negative control GS4 25 ppm), −49.1667; in the series on E. necator [3] (Run 2, ES43 10 ppm vs negative control GS4 25 ppm), 10.0000; in the series with E. necator [3] (Run 2, ES43 25 ppm vs negative control GS4 25 ppm), −26.3750; in the series on E. necator [3] (Run 3, ES43 10 ppm vs negative control GS145 25 ppm), −24.0000; in the series on E. necator [3] (Run 3, ES43 25 ppm vs negative control GS145 25 ppm), −17.0625. Also, the “powdery mildew development on leaf disks” value in the series on E. necator [3] (nine-dpi, 10 and 25 ppm, compared to untreated and non-dsRNA targets) is on record as “significant decrease of powdery mildew development”. Besides, in the series on E. necator [3] (three individual runs combined, 10 and 25 ppm, vs controls GS145 or GS4 (p<0.01)), the “fungal growth determined by disease severity (FIG. 1)” value is “Significant decrease of fungal growth”. Further, the “reduction of relative amounts of ES43 (Cyp51) transcripts” value with Cyp51 transcripts (6-dpi, compared to untreated control, FIG. 3) is “up to 70%”. In addition, the “gene silencing in E. necator by sprayed dsRNA” value with Cyp51 transcripts (qRT-PCR, six-days post inoculation) is recorded as “Induced Gene Silencing”. The “% decrease =/− SE TP1” value in the series on E. necator [4] (time point 1 (untreated control hyphal growth ≥50%)) is recorded as 41 ± 3%. Also, in the series on E. necator [4] (time point 2), the “% decrease =/− SE TP2” value is listed as 28 ± 5%.

For the origin of these results see patent US12077763B2, “RNA-based control of powdery mildew” (Greenlight Biosciences, Inc., priority 2021, dated 2024).
